Test results taken from publication PMC7437355 (2020).

Legend:
[1] = molecular target: T1, SPRED1(EVH1), SPRED1(13–125), wild type (ITC) (human, UniProt Q7Z699 13-125); assay: ITC
T1 chain: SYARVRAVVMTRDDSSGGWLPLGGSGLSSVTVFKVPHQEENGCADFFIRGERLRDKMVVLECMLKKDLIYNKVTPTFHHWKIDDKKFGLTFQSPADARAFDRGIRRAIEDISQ

[2] = molecular target: KRAS4b(1–169), wild type, GMPPNP-bound (UniProt P01116-2 1-169); assay: ITC; GMPPNP

B1: NF1 isoform I (GRD containing additional 23 residues) (domain or fragment)
chain: DRFERLVELVTMMGDQGELPIAMALANVVPCSQWDELARVLVTLFDSRHLLYQLLWNMFSKEVELADSMQTLFRGNSLASKIMTFCFKVYGATYLQKLLDPLLRIVITSSDWQHVSFEVDPTRLEPSESLEENQRNLLQMTEKFFHAIISSSSEFPPQLRSVCHCLYQATCHSLLNKATVKEKKENKKSVVSQRFPQNSIGAVGSAMFLRFINPAIVSPYEAGILDKKPPPRIERGLKLMSKILQSIANHVLFTKEEHMRPFNDFVKSNFDAARRFFLDIASDCPTSDAVNHSLSFISDGNVLALHRLLWNNQEKIGQYLSSNRDHKAVGRRPFDKMATLLAYLGPPEH
[1]
  Kd: 0.26 µM
[2]
  Kd: 4 µM
